Assays:
[1] = target: HLA-A3 on Hmy2.C1R-A3 transfectant cells with the pn2a.A3 peptide (human)
[2] = target: HLA-A2 on Hmy2.C1R-A2 transfectant cells with the HIV gag 77-85 peptide (human), A*02:0
[3] = target: HLA-A3 on Hmy2.C1R-A3 transfectant cells with the pn2a.A3 peptide (human); remark: listed apart in the source
[4] = target: HLA-A2 on Hmy2.C1R-A2 target cells pulsed with HTLV-1 TAX 11-19 peptide (human), A*02:0; test: cell-based or functional assay
[5] = target: HLA-A1 on Hmy2.C1R-A1 transfectant cells with the OD 309 peptide (ornithine decarboxylase 309-317) (human); test: competition with 2.5 µM myc-hβ2m on Hmy2.C1R-A1 cells with OD 309 peptide, 9E10 flow cytometry
[6] = target: HLA-A1 on Hmy2.C1R-A1 transfectant cells with the OD 309 peptide (ornithine decarboxylase 309-317) (human); test: HLA stabilization assay, acid-stripped Hmy2.C1R-A1 cells with OD 309 peptide and BB7.5 mAb, flow cytometry

hβ2m S55V (human β2-microglobulin with valine at position 55 of the mature protein) (from UniProt P61769 21-119)
fold better stabilization than wild-type hβ2m [1]: 3 fold
fold better inhibition of myc-hβ2m binding than wild-type hβ2m [2]: 2.5 fold
fold better inhibition of myc-hβ2m binding than wild-type hβ2m [3]: 2.5 fold
fold more effective than wild-type hβ2m at enhancing target cell lysis (CTL lysis assay) [4]: 4 fold
fold better inhibition of myc-hβ2m binding than wild-type hβ2m [5]: 2.5 fold
fold better stabilization than wild-type hβ2m [6]: 2 fold

Source: US20040091492A1
